These results are taken from patent publication US20240158517A1 (HIFIBIO HK, published 2024).

For the experiment, the target named is T1, human CXCR5 (human, UniProt P32302 1-372).
T1 construct: whole, on cells; Always presented on cells; one entry is used for all cell lines; also called hCXCR5; C-X-C chemokine receptor type 5
T1 sequence (looked up): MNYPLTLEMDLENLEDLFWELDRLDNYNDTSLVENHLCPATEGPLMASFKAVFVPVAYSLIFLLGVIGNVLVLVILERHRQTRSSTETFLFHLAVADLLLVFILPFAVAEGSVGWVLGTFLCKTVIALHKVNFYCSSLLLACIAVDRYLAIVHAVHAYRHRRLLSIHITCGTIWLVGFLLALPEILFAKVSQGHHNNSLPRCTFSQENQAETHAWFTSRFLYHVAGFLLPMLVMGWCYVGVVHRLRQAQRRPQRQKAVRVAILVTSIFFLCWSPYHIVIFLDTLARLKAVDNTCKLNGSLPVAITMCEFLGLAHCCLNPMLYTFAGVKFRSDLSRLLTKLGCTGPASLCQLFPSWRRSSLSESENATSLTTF
Nature of the experiment: flow cytometry on Raji cells, binding percentage, antibody at 1 nM and 0.1 nM.

Procedure: Binding properties of these 36 humanized variants were tested in binding assay to Raji cells at two different concentrations, 1 nM and 0.1 nM.

B1: HFB2-VH6VL4 (antibody, V domains shown)
VH: QVQLQESGPGLVKPSGTLSLTCAVSGFSLTSYGVSWVRQPPGKGLEWIGVIWGDGSTNYNPSLKSRLTISKDKSKNQVSLKLSSVTAADTAVYYCARVVYWGQGTLVTVSS
VL: DIQMTQSPSSLSASVGDRVTITCRSSKSLLHSNGKTYLYWFQQKPGKAPKLLIYRMSNLASGVPSRFSGSGSGTDFTLTISSLQPEDFATYYCMQHLEYPYTFGGGTKVEIK
With B1, the binding result was “binds”.

B2: HFB2-VH8VL4 (antibody, V domains shown)
VH: QVQLVESGGGVVQPGRSLRLSCAVSGFSLTSYGVSWVRQAPGKGLEWLGVIWGDGSTNYHSGLISRLTISKDNSKNTVYLQMNSLRAEDTAVYYCARVVYWGQGTLVTVSS
VL: DIQMTQSPSSLSASVGDRVTITCRSSKSLLHSNGKTYLYWFQQKPGKAPKLLIYRMSNLASGVPSRFSGSGSGTDFTLTISSLQPEDFATYYCMQHLEYPYTFGGGTKVEIK
In the case of B2, the binding result is “binds”.

B3: HFB2-VH10VL4 (antibody, V domains shown)
VH: QVQLVQSGAEVKKPGASVKVSCKASGFSLTSYGVSWVRQAPGQGLEWMGVIWGDGSTNYAQKLQGRVTMTKDTSTSTAYMELRSLRSDDTAVYYCARVVYWGQGTLVTVSS
VL: DIQMTQSPSSLSASVGDRVTITCRSSKSLLHSNGKTYLYWFQQKPGKAPKLLIYRMSNLASGVPSRFSGSGSGTDFTLTISSLQPEDFATYYCMQHLEYPYTFGGGTKVEIK
For B3, the binding result is listed as “binds”.

B4: HFB2-VH6VL7 (antibody, V domains shown)
VH: QVQLQESGPGLVKPSGTLSLTCAVSGFSLTSYGVSWVRQPPGKGLEWIGVIWGDGSTNYNPSLKSRLTISKDKSKNQVSLKLSSVTAADTAVYYCARVVYWGQGTLVTVSS
VL: DIVMTQSPDSLAVSLGERATINCRSSKSLLHSNGKTYLYWFQQKPGQSPKLLLYRMSNLASGVPDRFSGSGSGTDFTLTISSLQAEDVAVYYCMQHLEYPYTFGQGTKLEIK
Turning to B4, the binding result is “binds”.

B5: HFB2-VH10VL7 (antibody, V domains shown)
VH: QVQLVQSGAEVKKPGASVKVSCKASGFSLTSYGVSWVRQAPGQGLEWMGVIWGDGSTNYAQKLQGRVTMTKDTSTSTAYMELRSLRSDDTAVYYCARVVYWGQGTLVTVSS
VL: DIVMTQSPDSLAVSLGERATINCRSSKSLLHSNGKTYLYWFQQKPGQSPKLLLYRMSNLASGVPDRFSGSGSGTDFTLTISSLQAEDVAVYYCMQHLEYPYTFGQGTKLEIK
As to B5, the binding result is “binds”.

B6: HFB2-VH8VL6 (antibody, V domains shown)
VH: QVQLVESGGGVVQPGRSLRLSCAVSGFSLTSYGVSWVRQAPGKGLEWLGVIWGDGSTNYHSGLISRLTISKDNSKNTVYLQMNSLRAEDTAVYYCARVVYWGQGTLVTVSS
VL: EIVMTQSPATLSVSPGERATLSCRSSKSLLHSNGKTYLYWFQQKPGQAPRLLIYRMSNLASGIPARFSGSGSGTEFTLTISSVQSEDVAVYYCMQHLEYPYTFGQGTKLEIK
With B6, the binding result is listed as “binds”.

B7: HFB2-4hz41hG1 (antibody, V domains shown)
VH: QVQLVESGGGVVQPGRSLRLSCAVSGFSLTSYGVSWVRQAPGKGLEWLGVIWGDGSTNYHSGLISRLTISKDNSKNTVYLQMNSLRAEDTAVYYCARVVYWGQGTLVTVSS
VL: DIVMTQSPDSLAVSLGERATINCRSSKSLLHSNGKTYLYWFQQKPGQSPKLLLYRMSNLASGVPDRFSGSGSGTDFTLTISSLQAEDVAVYYCMQHLEYPYTFGQGTKLEIK
notes: Humanized, human IgG1 (hG1); also called HFB2-VH8VL7
Consider B7, for which the binding result is “binds”.
